According to patent US20160326230A1, “HUMAN RELAXIN ANALOGUE, PHARMACEUTICAL COMPOSITION OF SAME, AND PHARMACEUTICAL APPLICATION OF SAME” (SHANGHAI HENGRUI PHARMACEUTICAL CO., LTD., priority 2013, published 2016):

Columns and labels:
[1] = In vivo half-life measurement in rats (Human relaxin-2 ELISA of blood samples); set-up: species or system Sprague Dawley (SD) rats; conditions: SD rats, caudal vein injection, 0.5 mg/kg/rat
Protocol: A total of 12 experimental Sprague Dawley (SD) rats (6 male and 6 female) were used in this test (purchased from SINO-BRITSH SIPPR/BK LAB. ANIMAL LTD., CO, Certificate No.: SCXK (Shanghai) 2008-0016, 160-180 g), and the maintenance environment was SPF grade. SD rats were kept for 3 days in the laboratory environment, at a temperature of 20-25° C., with a humidity of 40-60%. The wild-type human relaxin analog 800828 (WT, prepared in Example 29) with the original sequence was used as a positive control in this test.
Rats were randomly divided into 3 groups, with 4 rats in each group, half males and half females. Control (saline) and human relaxin (analog 800814, WT 800828) were injected into the caudal vein of the rats (4 rats/sample) with a dose of 0.5 mg/kg/rat. Blood samples were taken from the rats' orbital sinuses at 0 h, 0.03 h, 0.08 h, 0.25 h, 0.5 h, 1 h, 1.5 h, 2 h, 4 h, 6 h and 8 h after the injections. Blood samples were centrifuged, and the supernatant was collected and stored at −20° C. for further analysis. After blood collection, the content of relaxin in the blood samples was detected using the Human relaxin-2 Quantikine ELISA Kit (R&D). The T1/2 of the test drug was calculated by T1/2 formula and EXCEL.

THP-1 cells = assay: In vitro bioactivity assay: cAMP production induced in THP-1 cells (cAMP ELISA); format: cell-based; conditions: 30 min incubation, forskolin + IBMX, average of three experiments, listed as 800828 (WT)
Protocol: The disclosed human relaxin analog (800814) binds to the receptor on THP-1 cells, and induces the production of cAMP in THP-1 cells. To determine the in vitro activity of human relaxin analog (800814), the generation of cAMP was detected. The wild-type human relaxin analog 800828 (WT) (prepared in Example 29) with the original sequence was used in this test as a positive control.
The cells used in the experiments, i.e., THP-1 (ATCC, Product Number: TIB-202™), were cultured in suspension at 37° C., 5% CO2, and used for experiments or passage when the cells were preferably in the logarithmic growth phase. THP-1 cells can be passaged every 2-3 days, with a dilution ratio of 1:3 to 1:4. The medium was RPMI1640, with 0.05 mM b-mercaptoethanol and 10% FBS. On the day of the experiment, THP-1 cells in logarithmic growth phase were collected by centrifugation, and resuspended in DMEM/F12. The cell density was adjusted to 2×10^6 cells/ml, and the cells were seeded in a 96-well plate (50 μl each well) and incubated in a 37° C. incubator for 30 minutes. […] The content of cAMP was detected with a CAMP ELISA KIT (CELL BIOLABS).
Data obtained in the above experiment was fit to a nonlinear curve using Graphpad Prism, and the EC50 value (ng/ml) of CAMP induced in the THP-1 cells by human relaxin analog (800814) was determined.

ICR mice = assay: In vivo biological activity: pubis width in estradiol-primed female ICR mice; conditions: s.c. 6 μg/100 μl/mouse, 40 hours later, ratio to solvent control group (=1)
Protocol: ICR mice (female, purchased from SINO-BRITSH SIPPR/BK LAB. ANIMAL LTD., CO, Certificate No.: SCXK (Shanghai) 2008-0016, 18-20 g) were used in this test, and the maintenance environment was SPF grade. After their purchase, ICR mice were kept in the laboratory environment for two weeks in the following conditions: illumination: 12/12-hour light/dark cycle regulation, temperature: 20-25° C.; humidity: 40-60%. The wild-type human relaxin analog 800828 (WT, prepared in Example 29) with the original sequence was used as a positive control in this test.
One week before the experiment, each female ICR mouse was subcutaneously injected with 5 μg/100 μ1/animal of β-estradiol (water-insoluble, slightly soluble in oil), which was mixed with olive oil. Six days later, ICR mice with a body weight less than 22 g were excluded, and the rest of the animals were equally divided into groups according to body weight. The animals were subcutaneously injected with relaxin 800828 (WT) ([…]/100 μl/mouse), 800814 (6 μg/100 μl/mouse) or 0.1% benzopurpurine 4B saline (solvent control group). Relaxin 800828 (WT) and 800814 were dissolved in physiological saline containing 0.1% benzopurpurin 4B. 40 hours later, the pubic bones were removed, skin and muscle were removed from the bone, and the pubis width was measured under microscope. […]

| EC50 of cAMP induced in THP-1 cells (THP-1 cells) [ng/mL] | Compound | T1/2 [1] | half-life ([1]; both sexes, Sprague Dawley, supernatant of centrifuged blood, iv) [min] | relative pubic width (ICR mice) |
| --- | --- | --- | --- | --- |
|  | CC[C@H](C)[C@@H]1NC(=O)[C@H](C)NC(=O)[C@H]([C@@H](C)CC)NC(=O)[C@H](CCC(N)=O)NC(=O)[C@H](C)NC(=O)[C@H](CCCNC(=N)N)NC(=O)[C@H](C(C)C)NC(=O)[C@H](CC(C)C)NC(=O)[C@H](CC(=O)O)NC(=O)[C@H](CCCNC(=N)N)NC(=O)CNC(=O)[C@@H](NC(=O)[C@H](CC(C)C)NC(=O)[C@H](CCCCN)NC(=O)[C@@H](NC(=O)[C@@H](NC(=O)[C@H](CCC(=O)O)NC(=O)[C@H](CCC(=O)O)NC(=O)[C@H](CCSC)NC(=O)[C@H](Cc2c[nH]c3ccccc23)NC(=O)[C@H](CO)NC(=O)[C@@H](N)CC(=O)O)C(C)C)[C@@H](C)CC)CSSC[C@@H]2NC(=O)[C@@H](NC(=O)[C@H](CCCCN)NC(=O)[C@H](CC(N)=O)NC(=O)[C@H](C)NC(=O)[C@H](CC(C)C)NC(=O)[C@H](C)NC(=O)[C@H](CO)NC(=O)[C@H](Cc3ccc(O)cc3)NC(=O)[C@H](CC(C)C)NC(=O)[C@@H](N)CC(=O)O)CSSC[C@H](NC(=O)CNC(=O)[C@H](C(C)C)NC(=O)[C@H](Cc3c[nH]cn3)NC2=O)C(=O)N[C@@H]([C@@H](C)O)C(=O)N[C@@H](CCCCN)C(=O)N[C@@H](CCCNC(=N)N)C(=O)N[C@@H](CO)C(=O)N[C@@H](CC(C)C)C(=O)N[C@@H](C)C(=O)N[C@@H](CCCNC(=N)N)C(=O)N[C@@H](Cc2ccccc2)C(=O)N[C@H](C(=O)O)CSSC[C@@H](C(=O)NCC(=O)N[C@@H](CCSC)C(=O)N[C@@H](CO)C(=O)N[C@H](C(=O)N[C@@H](Cc2c[nH]c3ccccc23)C(=O)N[C@@H](CO)C(=O)O)[C@@H](C)O)NC1=O [relaxin 800814] | does not affect its half-life | 52.8 |  |
| 3.05 | relaxin 800828: wild-type human relaxin with the original sequence, expressed in E. coli, refolded and digested; positive control; precursor SEQ ID NO: 23 | 52.2 min |  | 1.24 |
